± gives the standard deviation of the averaged measurements.
test system: ATP; experiment: switch fluorescence ratio, 500 uM ATP over buffer (Cy3 cluster intensity, sum of 5 cycles each) (fold (ratio)); higher = stronger signal-on switching upon ATP binding; sequences stand for … in TCGTCGGCAGCGTCAGATGTGTATAAGAGACAGTTTTTTTTTTTTTTTTTTTTTTTTT…TC; details: aptamer strand: ATP DNA aptamer (quencher-CACCTGGGGGAGTATTGCGGAGGAAGG + anchor), 100 nM annealed; ATP concentration: 500 uM
Summary of the method: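 For every switch-domain sequence, the fluorescence ratio is the mean of per-cluster values, each being summed target-cycle Cy3 intensity over summed buffer-cycle Cy3 intensity. Clusters outside 100-1000 RFU were excluded. On a modified Illumina MiSeq flow-cell, the Cy3-labelled switching-strand clusters were annealed to 100 nM quencher-labelled ATP aptamer, imaged in selection buffer and then after 15 min with 500 uM ATP at 22 °C. Five such cycles were run, with NaOH stripping and re-annealing between them.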
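Note: ATP exposure 15 min at 22 °C before imaging.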

| Sequence | switch fluorescence ratio |
| --- | --- |
| GCTAGGGCGT | 0.972 ± 0.051 |
| TTTTTTGGCT | 0.995 ± 0.025 |
| CCGTATATCC | 2.44 ± 0.16 |
| TGGGAGGG | 1.04 ± 0.013 |
| AATACTCACG | 1.5 ± 0.058 |
| TAGTAGACTG | 1.01 ± 0.05 |
| TGATGTCTAG | 0.967 ± 0.021 |
| TAGGGGGATT | 1.014 ± 0.0089 |
| TGTGGGATAG | 0.979 ± 0.029 |
| AGTCATAAAG | 0.984 ± 0.014 |
| GGTTTTTGGC | 1.02 ± 0.048 |
| CCCGGCTGTT | 1.02 ± 0.067 |
| AAAACCGGAT | 1.11 ± 0.18 |
| TCTAATTTCC | 1.05 ± 0.045 |
| TTTTCGTGGG | 0.986 ± 0.027 |
| GGTTCTATAG | 0.993 ± 0.02 |
| ACAGCCACGG | 1.18 ± 0.038 |
| TAAGGGGAGG | 1 ± 0.017 |
| TGTTAATAGC | 1.03 ± 0.032 |
| ATATTTTGGG | 1.003 ± 0.0089 |
| TGGTGATGGG | 0.9922 ± 0.0093 |
| CGCTTGGTCG | 1.03 ± 0.016 |
| GGCGTAGTCA | 0.9855 ± 0.0022 |

| Sequence | switch fluorescence ratio |
| --- | --- |
| CGCTTCTCTT | 1.03 ± 0.011 |
| TGTGTTAGTT | 0.991 ± 0.024 |
| TTCCATGGCC | 1.04 ± 0.044 |
| AGATCATGAG | 0.9708 ± 0.0079 |
| TTAGTGAGGG | 0.99 ± 0.042 |
| GACTTTGGTG | 1.01 ± 0.026 |
| ATTTTACCTC | 1.05 ± 0.13 |
| ATCCCTCATA | 1.01 ± 0.018 |
| GGCTTTACCT | 1.101 ± 0.0097 |
| GGCGGGGACC | 0.982 ± 0.025 |
| TACAGGGATC | 0.993 ± 0.027 |
| TAGGCGTACG | 1.08 ± 0.006 |
| ATAGGTATGC | 1 ± 0.06 |
| GTAGTTTTTT | 1.04 ± 0.032 |
| AAAACTTGAA | 1.07 ± 0.086 |
| GGCGCCGGCT | 0.992 ± 0.079 |
| ATTGATGATT | 0.993 ± 0.0075 |
| TAAAAATACT | 1.07 ± 0.11 |
| GATCTTTGTT | 1.009 ± 0.0093 |
| TCTAATTGGG | 1.01 ± 0.037 |
| CTAAAATGCT | 1.042 ± 0.0088 |
| TATAAGAGAA | 0.972 ± 0.031 |
| TAGGCTGAGG | 1.002 ± 0.0063 |

| Sequence | switch fluorescence ratio |
| --- | --- |
| AGGAAGTGGT | 0.9671 ± 0.006 |
| GAGGGGTTGT | 1.03 ± 0.013 |
| ATGTGTAAAG | 0.98 ± 0.017 |
| TCAGGATTAG | 1.02 ± 0.02 |
| ACTGATACGT | 1.12 ± 0.017 |
| AATATCACGG | 1.05 ± 0.029 |
| GATACAGTAA | 1.06 ± 0.017 |
| TTTTTGTCGC | 0.992 ± 0.025 |
| ATAAGAGGGT | 0.976 ± 0.049 |
| AACGGGGAGC | 0.983 ± 0.047 |
| GTTGGGACGG | 0.9569 ± 0.006 |
| GCAGGTGGCG | 1.01 ± 0.044 |
| GAGTGTTGGG | 1.004 ± 0.0052 |
| GATGTTAAAC | 1.06 ± 0.02 |
| GGGGCAGGAT | 1.22 ± 0.34 |
| CGTGTAAATA | 0.995 ± 0.015 |
| CCCAAAAACG | 1.25 ± 0.29 |
| GGTGGGGTAG | 0.988 ± 0.021 |
| GGTGGGGTAA | 0.9927 ± 0.0083 |
| GTTATATGTT | 1 ± 0.03 |
| GTGAGGGACG | 0.999 ± 0.081 |
| TTTTACGGGG | 1.02 ± 0.03 |
| TGGTACGGGA | 0.999 ± 0.043 |

| Sequence | switch fluorescence ratio |
| --- | --- |
| GGGCATGAAT | 0.965 ± 0.016 |
| TGTTCAAAAC | 1 ± 0.086 |
| CAATCCTGGG | 0.989 ± 0.034 |
| AAGGGCTGGT | 0.99 ± 0.022 |
| TTTTCTTTAA | 0.9798 ± 0.0051 |
| CTCATTAAGG | 1.01 ± 0.016 |
| CGGATGGTGT | 0.97 ± 0.029 |
| TTTAGCCCAG | 1.013 ± 0.0024 |
| CAATTGCTGG | 0.949 ± 0.035 |
| TTTTTATGAG | 1 ± 0.036 |
| TATCTGGGCA | 1.06 ± 0.087 |
| TTTCTATGTA | 1.01 ± 0.024 |
| TTTTCAAAAA | 1.13 ± 0.19 |
| ATACGGCCCC | 1.2 ± 0.1 |
| TAAGGTGGGA | 0.996 ± 0.03 |
| AGGTTAGAGG | 0.993 ± 0.016 |
| CGACGGGCGG | 1.02 ± 0.032 |
| AACCTGGGTA | 1.008 ± 0.0035 |
| ATTTTGGCGT | 0.982 ± 0.037 |
| GGCAGAAAGT | 1.014 ± 0.0027 |
| TGATTACTCA | 1.03 ± 0.021 |
| AGGGGGGGAC | 1 ± 0.021 |
| CGCATTTAGT | 1.12 ± 0.0063 |

| Sequence | switch fluorescence ratio |
| --- | --- |
| ACAGTAATGG | 1.05 ± 0.041 |
| TTTTAGACTG | 1.05 ± 0.039 |
| CGGTGGATCA | 0.992 ± 0.017 |
| AATAGTAGCG | 1.01 ± 0.054 |
| GATTATATAG | 0.957 ± 0.019 |
| AATGCAACAG | 1.15 ± 0.056 |
| CTTAGCGGCC | 1.007 ± 0.0038 |
| GGGTGGGTGC | 1.02 ± 0.048 |
| ACCATGACGG | 1.044 ± 0.0092 |
| CTTAAATTCT | 1.01 ± 0.011 |
| TGGTTGGGGA | 0.994 ± 0.036 |
| TAATACTATT | 1.05 ± 0.016 |
| AGGGGTACTC | 0.9982 ± 0.0076 |
| GGGTACGCAC | 1.82 ± 0.034 |
| GGTACGTTTT | 1.03 ± 0.024 |
| GTGATAGATG | 1.013 ± 0.01 |
| GGGTTTTGTG | 1.01 ± 0.022 |
| AAGAATCAGA | 0.98 ± 0.015 |
| GCGTAGATGG | 1.006 ± 0.0087 |
| TTCATGGGGT | 1.04 ± 0.033 |
| TGAATGGTTT | 0.997 ± 0.031 |
| ATATGAGTGA | 0.985 ± 0.013 |
| CAGGCTGGAC | 1.06 ± 0.046 |

| Sequence | switch fluorescence ratio |
| --- | --- |
| TACAGAAGCG | 1.033 ± 0.0073 |
| ACGCTGTTGA | 1.03 ± 0.047 |
| TGTTATGTGC | 0.968 ± 0.036 |
| CGGGTGGGAT | 1.006 ± 0.0035 |
| GGTTGTACGA | 0.986 ± 0.01 |
| TGATGGGGTC | 0.991 ± 0.013 |
| GCCGTAAGGA | 1.06 ± 0.033 |
| AAGGGGTGGT | 0.989 ± 0.032 |
| GGGGGGTCAA | 0.967 ± 0.033 |
| CCGTGTAAGC | 1.343 ± 0.0024 |
| CCAAGGATAA | 1.047 ± 7.2e-05 |
| CCTCTACG | 1.41 ± 0.044 |
| TATTCTCGAC | 1.01 ± 0.013 |
| CCGGTTTGGA | 1.13 ± 0.17 |
| TTTGATACGG | 1 ± 0.028 |
| GTGAAATTGT | 1.01 ± 0.034 |
| GGGTCCGAAT | 1.02 ± 0.016 |
| AACGGATTCT | 1.04 ± 0.016 |
| GACGTAGT | 1.01 ± 0.022 |
| ATGGACGCTA | 1.12 ± 0.048 |
| AAGGGTTACG | 1 ± 0.025 |
| CAACGAAGTG | 1 ± 0.069 |
| CACTACGACT | 1.084 ± 0.0034 |

| Sequence | switch fluorescence ratio |
| --- | --- |
| CTGTATCAAG | 0.999 ± 0.013 |
| ATGGAAAAGA | 0.978 ± 0.016 |
| GGTTGCCTGC | 0.96 ± 0.029 |
| AAGCTGGTTT | 0.982 ± 0.032 |
| GTGTTAGCTA | 1 ± 0.011 |
| TAGTTCATGG | 0.991 ± 0.019 |
| CACGTATCGG | 1.07 ± 0.029 |
| CAGGTTATAT | 1.03 ± 0.028 |
| CGTTGTGGCA | 1 ± 0.028 |
| CTGCCAGGTT | 1.146 ± 0.0052 |
| TAAGTGTAGC | 1.035 ± 0.0035 |
| TCGGAGGCGG | 1.007 ± 0.0069 |
| TGGGTGGGAC | 1.04 ± 0.036 |
| TTGGATCAAC | 1.04 ± 0.051 |
| CTGGCTTGAC | 0.983 ± 0.0052 |
| TAGCGGGTCA | 0.966 ± 0.012 |
| AGGAAGGGGG | 0.992 ± 0.034 |
| ATGAGAGAAT | 1.0144 ± 0.0004 |
| TAAAAAAGGA | 1.05 ± 0.12 |

— the supplement of paper PMC10126150
